Laboratory results taken from patent publication US10138280B2, “Polypeptides targeting glycosylated MUC2 proteins, methods of synthesis, their nucleic acids and uses thereof” (INSTITUT PASTEUR, priority 2011, dated 2018).

Key:
mouse colonic mucus = experiment: Mucus staining on fixed tissues, mouse colon; details: fixed tissue, 1 μg/mL
Description: FIGS. 11A-11C. Mucus staining using Cy5-MUB70 on fixed tissues. (FIG. 11A) Guinea pig colon, (FIG. 11B) rabbit ileum and (FIG. 11C) mouse colon were fixed in PFA 4%. Immunofluorescent staining was performed using Cy5-MUB70 (1 μg/mL) (blue). Actin is stained in red (Phall.-RRX), Muc2 is stained in green (α-Muc2). Observations were performed using a confocal microscope. Bar is 50 μm.
Ex vivo human colon samples were obtained from Dr. E. Labruyère (Institut Pasteur) and tissue processing was performed as described previously and stored in serum free RMPI media (surgical procedure is described herein). Human mucinous carcinoma formamide fixed samples were obtained from Dr. T. Lazure (Hôpitaux Universitaires Paris-Sud, Kremlin-Bicêtre) and Pr. I. Sobhani (Hôpital Henri Mondor, Créteil). Rabbit colon and ileum samples were collected on naïve New Zealand white rabbits weighting 2.5-3 kg and fixed in PFA 3%. Same procedure was applied on intestine samples collected on guinea pigs (Charles River) and C57/B6 mice (Janvier).
Following PFA 4% or Carnoy fixation, as indicated, samples were washed in PBS, incubated at 4° C. in PBS containing 12% sucrose for 90 min, then in PBS with 18% sucrose overnight, and frozen in OCT (Sakura) on dry ice. 7 μm sections were obtained using a cryostat CM-3050 (Leica). […]

[1] = target: T1, human colonic mucus (Muc2) (Homo sapiens, UniProt Q02817); experiment: Immunofluorescent staining of human mucus and fixed human colon samples; details: human colon mucus from ex vivo samples and fixed purified human mucus
T1 construct: Segments of human colon (ascending, descending and sigmoid colon) were obtained from fully informed patients undergoing surgery; from tissue; host or cells: healthy human colon segments (live explants, mucus collected from them, Carnoy- or formol-fixed sections)
Source text: FIGS. 4A-4B. Cy5-MUB70 is specifically binding to the glycosylated moiety of Muc2 secreted in the colon mucus layer. (FIG. 4A) Immunodetection of Muc2, Muc5ac, Muc5b and Muc6 (dotblot analysis) on human mucus extracts eluted after a pulldown assay performed with biot-MUB70 on avidin conjugated beads (see Methods). Biotin is used as a negative control. Immunodetection of Muc2 (dotblot analysis) on deglycosylated mucus extracts eluted after a pulldown assay performed with biot-MUB70 on avidin conjugated beads. Non-deglycosylated mucus extract is used as a positive control. (FIG. 4B) Co-localization of Muc2 (green) and Cy5-MUB (blue) observed on fixed (Carnoy) human colon samples. Actin is stained in red (Phall.RRX). Observations are performed using a confocal microscope. Bars is 20 μm.
FIGS. 9A-9B. (FIG. 9A) Co-localization of Muc2 (green) and Cy5-MUB (blue) performed by immunofluorescent detection on human mucus extract collected on ex vivo tissues using an epifluorescent microscope. Bar is 50 μm. […]
For immunofluorescence assay mouse α-MUC2 pAbs (Santa Cruz sc-15334) was diluted 1:1000 and FITC-conjugated rabbit anti-mouse was diluted 1:2000. Host cells were detected with DAPI (nuclei, […]) or using Phalloidin-Rhodamine red X (RRX)-conjugated donkey anti-mouse antibodies (Jackson Immunoresearch Antibodies) as an actin marker (stained red); both were used at a final dilution of 1:1000. […]

[2] = test system: human neutrophil (PMN) granules; experiment: Human neutrophil (PMN) granule staining; format: cell-based
Description: FIG. 14. Staining of individual neutrophiles (white blood cells) in human blood sample. Cy5-MUB70 was incubated on ethanol 100% fixed blood sample. […] (Details are provided on the Figure). […] In particular, granules staining is achieved.
FIG. 15. Staining of individual neutrophiles (white blood cells) purified from fresh human blood sample. Cy5-MUB70 was incubated on PFA 4% fixed neutrophiles (PFA treatment for 15 min, wash 3 times in PBS). Signal was detected as dots distributed in neutrophile cytoplasms. (Staining with Dapi 1:1000 and EB1C5 1:1000 in PBS+10% FCS+0.1% Saponin). […] In particular, granules staining is achieved.
FIG. 29. Identification of Muc2 in neutrophile granules using MUB70-Cy5. Human neutrophil (PMN) granule staining using Cy5-MUB70. PMN were purified from healthy donor blood samples and fixed in the presence of 4% PFA. Fluorescent staining of human colonic mucus was performed by the addition of 1 μg/mL of Cy5-MUB70 (Red) with Dapi (1:100) (Blue) and 1:200 anti-Muc2 antibody (Green). Image acquisition was performed using a fluorescent confocal microscope (see Methods).
FIG. 31. Identification of Muc2 in neutrophile granules. Human neutrophil (PMN) granule staining using Cy5-MUB40-1, Cy5-MUB40-2, Cy5-MUB40-3, Cy5-MUB40-4 peptides. Schematic description of the Cy5-conjugated peptides. PMN were purified from healthy donor blood samples and fixed in the presence of 4% PFA. Fluorescent staining of human colonic mucus was performed by the addition of 1 μg/mL of the Cy5-conjugated peptides (Green) with Dapi (1:100) (Blue) and Phalloidin-RRX (1:1000) (Red). Image acquisition was performed using a fluorescent confocal microscope (see Methods).
The invention has also proven to be useful for the monitoring of neutrophile degranulation events, in particular by using MUB70 and/or MUB40 polypeptides or polypeptides sharing identity with MUB70 and/or MUB40 polypeptides, or fragments thereof, for labelling neutrophile granule(s).

B1: Cy5-MUB70: Cy5-labelled MUB70 polypeptide, labelled via Cy5 maleimide on N-terminal cysteine (conjugate)
peptide: CVHVQYIDGETDQMLRQDDLDGYTDETIPYSTAEGIKKFEGDGYELFKDNFPAGEKFDNDDTNDQFYTVIF
colonic mucus staining (mouse colonic mucus): not stained | colocalization with Muc2 [1]: colocalization detection of Muc2 and Cy5-MUB70 | PMN granule staining ([2]; PMN purified from human blood, fixed in 4% PFA, 1 μg/mL): binding specifically a neutrophile granule component | neutrophile staining in human blood sample ([2]; ethanol 100% fixed blood sample): Signal was detected as diffused in neutrophile cytoplasm
